T1: hiR2-FL-E617D-T7 (human, UniProt Q6PJF5 1-856)
T1 sequence: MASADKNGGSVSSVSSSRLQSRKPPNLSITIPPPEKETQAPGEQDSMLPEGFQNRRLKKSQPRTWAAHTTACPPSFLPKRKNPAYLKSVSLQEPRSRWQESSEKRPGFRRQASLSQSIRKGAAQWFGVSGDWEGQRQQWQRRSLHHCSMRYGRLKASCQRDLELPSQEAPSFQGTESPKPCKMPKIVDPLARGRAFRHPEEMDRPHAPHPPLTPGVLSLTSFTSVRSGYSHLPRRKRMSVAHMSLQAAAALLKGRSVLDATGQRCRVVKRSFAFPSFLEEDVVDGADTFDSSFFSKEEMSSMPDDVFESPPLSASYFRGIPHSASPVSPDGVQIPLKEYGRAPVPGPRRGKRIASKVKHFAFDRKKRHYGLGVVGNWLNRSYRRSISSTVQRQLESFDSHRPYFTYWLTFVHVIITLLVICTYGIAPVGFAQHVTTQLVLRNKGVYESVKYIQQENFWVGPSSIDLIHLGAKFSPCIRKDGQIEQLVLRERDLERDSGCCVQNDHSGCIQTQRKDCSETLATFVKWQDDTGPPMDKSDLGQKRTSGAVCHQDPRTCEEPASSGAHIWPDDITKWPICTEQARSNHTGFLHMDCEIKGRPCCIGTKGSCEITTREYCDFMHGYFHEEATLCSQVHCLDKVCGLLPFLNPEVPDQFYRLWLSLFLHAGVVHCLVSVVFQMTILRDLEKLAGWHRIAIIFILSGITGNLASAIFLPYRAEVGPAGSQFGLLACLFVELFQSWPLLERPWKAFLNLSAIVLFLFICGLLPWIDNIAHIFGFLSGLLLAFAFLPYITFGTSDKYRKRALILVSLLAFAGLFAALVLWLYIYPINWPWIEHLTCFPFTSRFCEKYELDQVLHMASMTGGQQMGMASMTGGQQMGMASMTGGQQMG


Molecular target: T1, hiR2-FL-E617D-T7
Assay: FACS, MEF-DKO cells, 3 µg/ml
How it was run: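 Binding read by flow cytometry after a PE goat anti-mouse IgG F(ab′)2 secondary (1:100, on ice, 1 h, dark). Before that, immortalized MEF-DKO lines carrying single-mutant hiR2-FL-T7 constructs were incubated 1 h on ice with 3 μg/ml antibody or FACS buffer alone.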

Row | Binder | loss of binding vs wild type
1 | antibody 48 (antibody, V domains shown, mouse IgG, kappa light chain; also called clone #48; purified antibody 48) VH: QVQLQQSGTELVRPGTSVKVSCKASGYAFTNYLIEWVKQRPGQGLEWIGVINPGSGFTKYNEKFKGKATLTADKSSSTVYMHLSSLTSEDSAVYFCARGLYRAMDYWGQGTSVTVSS VL: DIQMTQSPASQSASLGESVTITCLASQTIATWLAWYQQKPGKSPQLLIYGATTLADGVPSRFSGGGSGTKFSFKISSLQAEDFVSYYCQQLYSTPYTFGGGTKLEIK | ≥ 30%
2 | antibody 50 (antibody, V domains shown, mouse IgG, kappa light chain; also called clone #50; purified antibody 50) VH: QVQLQQSGAELVRPGASVKVSCKASGYAFSNYLIEWVKQRPGQGLEWIGVINPGSGFTKYNEKFKGKATLTADKSSSTAYMQLSSLTSEDSAVYFCARGLYRAMDYWGQGTSVTVSS VL: DIQMTQSPASQSASLGESVTITCLASQTIGTWLAWYQQKPGKSPQLLIYAAASLADGVPSRFSGGGSGTKFSFKISSLQAEDFVNYYCQQIYSTPYTFGGGTKLEIK | ≥ 30%
